Where “and” joins values, the source holds several entries; their conditions need not be identical. Equal entries are not always repeated. Where two headings read alike, the source gives them in different places. Some results are limits rather than exact numbers.

Test [1] concerns the target Thermothelomyces thermophilus SAM complex (sorting and assembly machinery complex; Sam50:Sam35:Sam37, monomer) (Thermothelomyces thermophilus). Nature of the test: MST; SAM complex labelled with Monolith RED-tris-NTA 2nd Generation, constant at 25 nM; serial dilution of peptide; size exclusion buffer (20 mM HEPES pH 8.0, 150 mM NaCl, 0.02% GDN); Monolith NT.115, premium capillaries.

Test [2] concerns the target Thermothelomyces thermophilus SAM complex (10xHis-TEV-Sam50, Sam35 (no tag), TwinStrep-TEV-GG-Sam37) (Thermothelomyces thermophilus). Nature of the test: MST; SAM complex labelled with Monolith RED-tris-NTA 2nd Generation, constant at 25 nM; serial dilution of peptide; size-exclusion buffer (20 mM HEPES pH 8.0, 150 mM NaCl, 0.02% GDN); Monolith NT.115, premium capillaries; MO.Affinity Analysis; one Kd for each biological replicate from 2-3 technical replicates. (In gel filtration, larger molecules generally elute earlier.)

Consider darobactin A (peptide), for which the Kd – broadly, a measure of binding affinity in units of concentration – in test [1] was 0.296 µM and 0.0956 to 0.377 µM; in test [2] (mean of biological replicates) it was 0.228 µM.

Take linear darobactin (peptide): the Kd in test [1] is 490 to 1200 µM; in test [2] it was more than 1170 µM.

The values are drawn from publication PMC12728192, “The dynamic lateral gate of the mitochondrial β-barrel biogenesis machinery is blocked by darobactin A” (Nature Communications, 2025).
